Test results taken from patent US20210403582A1 (JACOBIO PHARMACEUTICALS, published 2021).

Assays:
human OSM = target: T1, human OSM (human, UniProt P13725 26-221, limits assumed); assay: ELISA, human OSM coated at 1 µg/mL, HRP goat anti-mouse Fab, A450
T1 sequence (looked up): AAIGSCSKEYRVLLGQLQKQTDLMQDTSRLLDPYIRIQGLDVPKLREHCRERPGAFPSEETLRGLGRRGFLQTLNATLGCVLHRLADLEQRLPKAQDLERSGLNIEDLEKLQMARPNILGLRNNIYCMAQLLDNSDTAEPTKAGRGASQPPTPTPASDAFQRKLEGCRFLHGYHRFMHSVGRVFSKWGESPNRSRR
Protocol: After washed four times with PBST, HRP-labeled goat anti-mouse Fab secondary antibodies were added and incubated at room temperature for 1 h. After washed four times with PBST, TMB colored solution was added and color developing for 10 min at room temperature. The absorption value at 450 nm was read by the enzyme maker. The data were analyzed and plotted using Origin pro 9 software.

human LIF protein [1] = target: T2, human LIF protein (human, UniProt P15018 23-202); assay: competition ELISA: human LIF coated at 1 µg/mL, GP130-Fc 20 µg/mL added together with the antibody, A450
T2 construct: Bought recombinant protein (Sino Biological / Yiqiao Shenzhou 14890-HNAH) in most assays; also called recombinant human LIF protein; rhLIF
Protocol: The recombinant human LIF protein was coated on the enzyme label plates at a concentration of 1 μg/mL, GP130 protein (expressed fusedly with human FC) at a concentration of 20 μg/mL was added (50 μL/well), and the anti-human LIF antibodies P36-033 and 38E10E1C11 at different concentrations simultaneously were added separately (50 μL/well), and incubated for 2 h at room temperature. At the same time, the control wells added with antibodies and without GP130 protein were set. Incubated for 2 h at room temperature. After washed four times with PBST, incubated with HRP-labeled goat anti-mouse FC secondary antibody for 1 h at room temperature. Then the plates were washed four times with PBST and added with TMB coloured solution in for 10 minutes. The absorption value at 450 nm is quantitated using an enzyme-labelling measuring instrument, and the data was analyzed and plotted using Origin pro 9 software.

human LIF protein [2] = target: T2, human LIF protein; assay: ELISA, human LIF coated at 1 µg/mL, A450
Protocol: The recombinant human LIF protein was diluted to 1 μg/mL, was coated on the enzyme label plate, 100 μL of the protein was added into every well, and incubated overnight in 4° C. The enzyme label plates were taken out next day, and the liquid was discarded, and were washed with PBST three times and blocked with 2% BSA in PBS for 1 h at room temperature, then washed with PBST three times, and added anti-human LIF antibodies 38E10E1C11, 5D8 and P36-033 at different concentrations and incubated for 1 h at room temperature. The liquid was discarded, and the plates were washed with PBST four times. The plates were added with HRP-labeled goat anti-mouse Fab antibody or goat anti-human FC antibody and incubated for 1 h at room temperature. Then the liquid was discarded, and the plates were washed four times with PBST and incubated with TMB colored solution in 10 minutes at room temperature. Stop color development by adding 2 mol/L H₂SO₄, and the absorption value at 450 nm is quantitated using an automated plate photometer, and the results were shown in FIG. 1.

[3] = target: T3, Mut4 heterozygous LIF protein (human LIF with residues 166-202 of …, UniProt P15018 23-201, limits assumed); assay: western blot of 293T culture supernatants, primary antibody 38E10E1C11, HRP goat anti-mouse Fab
T3 construct: Secreted into the supernatant of transfected 293T cells; also called Mut4 protein

[4] = target: T4, Mut3 heterozygous LIF protein (human LIF with residues 182-202 of …, UniProt P15018 23-201, limits assumed); assay: as above
T4 construct: Secreted into the supernatant of transfected 293T cells; also called Mut3 protein

binding result (human OSM): no binding (tested: 25 ug/ml)
IC50 (read off the curve) (human LIF protein [1]): ~0.6 µg/mL
EC50 (read off the curve) (human LIF protein [2]): ~0.05 µg/mL
binding result [3]: no binding
binding result [4]: binds
B1: 38E10E1C11 antibody (antibody, mouse IgG1, kappa)
heavy: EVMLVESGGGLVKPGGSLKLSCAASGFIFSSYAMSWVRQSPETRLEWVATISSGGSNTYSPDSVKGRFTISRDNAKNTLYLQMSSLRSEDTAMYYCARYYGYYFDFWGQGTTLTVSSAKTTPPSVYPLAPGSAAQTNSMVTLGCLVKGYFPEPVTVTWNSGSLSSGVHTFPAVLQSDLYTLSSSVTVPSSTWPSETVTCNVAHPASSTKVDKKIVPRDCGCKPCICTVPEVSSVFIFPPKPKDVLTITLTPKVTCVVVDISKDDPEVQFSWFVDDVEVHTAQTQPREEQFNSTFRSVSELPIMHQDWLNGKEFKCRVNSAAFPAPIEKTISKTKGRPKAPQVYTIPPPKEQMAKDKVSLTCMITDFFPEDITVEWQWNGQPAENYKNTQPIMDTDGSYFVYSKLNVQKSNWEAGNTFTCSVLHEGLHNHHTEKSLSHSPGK
light: DIHMTQSPASLSASVGETVTITCRASENIYSYLAWYQQKQGKSPQLLVYNAKTLAEGVPSRFSGSGSGTQFSLKINSLQPEDFGSYYCQHHYVTPLTFGAGTKLELKRADAAPTVSIFPPSSEQLTSGGASVVCFLNNFYPKDINVKWKIDGSERQNGVLNSWTDQDSKDSTYSMSSTLTLTKDEYERHNSYTCEATHKTSTSPIVKSFNRNEC
notes: Mouse IgG1, kappa light chain; also called 38E10E1C11 mAb; mAb38E10E1C11
